US10759835B2, “Monomeric streptavidin mutants, methods of using the same and processes of manufacturing proteins” (The Research Foundation for The State University of New York, priority 2016, dated 2020)
Where “and” joins values, the source holds several entries; their conditions need not be identical. Equal entries are not always repeated.

What was measured:
[1] = Fluorescence polarization spectroscopy, biotin dissociation rate (koff); format: binding; settings: for t1/2: dissociation half-life t1/2=0.693/koff, biotin-fluorescein; for t1/2 / Koff(×10^−3 min^−1): 37° C.; for Koff(×10^−3 min^−1): dissociation of biotin-fluorescein, excess free biotin 100 μM
Protocol: FIG. 4. In vitro characterization of purified mSA mutants. a) Stability of mSA-RF and mSA-RWT in PBS was measured by circular dichroism spectroscopy with or without biotin. b) Fluorescence polarization spectroscopy was used to measure the dissociation rate of biotin-fluorescein. The dissociation rate, koff, was computed by fitting normalized fluorescence polarization data, or bound fraction f, to an exponentially decaying function, i.e. ƒ=e^−k^off^*t The measurements were taken at 37° C. c) The equilibrium affinity of binding Kd between mSA-RF and biotin-fluorescein was measured by FP. d) mSA-S25H and mSA-RF were analyzed by size exclusion chromatography to estimate their molecular weights in solution. Each mutant eluted with a retention time that was consistent with monomeric streptavidin. The molecular weight standards (arrows) correspond to 66.0, 29.0, 12.4 and 6.5 kDa from left to right.
The binding of biotinylated fluorescein (bf, AnaSpec) was measured using a microplate reader (SpectraMax® i3 Microplate reader from Molecular Devices) in flat bottom 96 well plates (Sterilin Ltd). To measure Kd, 100 nM bf was first mixed with titrating amounts of mSA in PBS containing 0.1 mg/ml bovine serum albumin (BSA). After overnight incubation at room temperature, the fluorescence polarization values were measured and fit to the quadratic binding equation (Hsu and Park, 2010, J Mol Graph Model, 29, 295-308). To measure the off rate (koff), 10 nM bf was first mixed with 50 nM mSA and incubated for 2 hr to form a biotin-mSA complex. To observe dissociation of bf, excess free biotin was added to a final concentration of 100 μM and recording of fluorescence was started immediately. The intensity of polarized fluorescence was measured at various time points and normalized with respect to the value at t=0 min. The intensities were fit to an exponentially decaying function e^−k^off^*t to compute koff. The dissociation half-life t1/2=0.693/koff.
We measured the biotin dissociation rate of various mSA mutants by fluorescence polarization spectroscopy. Table 2 presents the biotin dissociation rate (koff) of various mutants measured by fluorescence polarization spectroscopy. The S25R mutation lowered koff by nearly 21 fold compared to the original mSA and 3.3 fold compared to the S25H mutant (Table 2, FIG. 4b).

[2] = currently available mSA, Lim et al.; cited from earlier work
[3] = system: HEK293 cells displaying biotinylated AP-CFP; experiment: Fluorescent labeling of cell surface biotinylated receptor, confocal microscopy; format: cell-based
From the text: FIG. 5. Fluorescent labeling of HEK293 cells displaying biotinylated receptor. a) HEK293 cells displaying biotinylated AP-CFP were labeled with Alexa488-conjugated mSA-RWT and imaged by fluorescence microscopy. Fluorescence was filtered for (i) CFP and (ii) Alexa488 and the same field of vision was imaged multiple times at regular intervals to measure the stability of labeling. iii. DIC. mSA-RWT binds only CFP positive cells, indicating high specificity of interaction. b-c) HEK293 displaying unrelated protein fused to CFP b) or untransfected HEK293 c) were treated with purified BirA and then labeled with fluorescent mSA-RWT as in part (a) (i)-(iii) the same as before. d) The captured fluorescence images of mSA-RWT—Alexa488 labeled cells (in jpg format) were loaded into MatLab and the amount of CFP and Alexa488 fluorescence was quantified by summing over pixel values. The fluorescence intensity was normalized with respect to the value at t=0. e) Cells labeled with mSA-RF—EGFP were similarly imaged and analyzed to determine the time dependent loss of mSA labeling.
Adherent HEK293 cells were seeded in a 24 well plate (Becton Dickinson) and grown in DMEM supplemented with 10% FBS and antibiotic/antimycotic (Invitrogen). At 50% confluency, the cells were transfected with a plasmid containing pDisplay-AP-CFP-TM. After 2 days the wells were supplemented with 100 nM purified BirA, 5 mM ATP, and 0.3 mM biotin and the biotinylation reaction was carried out overnight. The following morning, the cells were detached from the wells using EDTA Solution (Versene from Life Technologies), washed with PBS containing 0.1% w/v BSA (PBSF), and fixed in 4% paraformaldehyde solution. Prior to microscopy, cells were labeled with 1 μM mSA-RWT—Alexa488 or 1 μM mSA-RF—EGFP in PBSF for 30 minutes. Excess protein was washed away and cells were switched to PBSF with 0.9 mM biotin. Each sample was mounted on slides and imaged using confocal microscopy. The same field of view was imaged every 10 min for 60 min to quantify fluorescence loss as a function of time. The captured images were analyzed with microscope software (ZEN from Zeiss, and MatLab® from MathWorks).
We tested the use of mSA-RWT or mSA-RF in cell imaging, in which biotinylated proteins on the cell surface were labeled with Alexa488 conjugated mSA-RWT or mSA-RF fused to EGFP, and imaged by fluorescence confocal microscopy. Cell imaging is an important test of whether engineered mutants can specifically interact with biotinylated ligands in a heterogeneous environment, in which other potentially competing interactions can interfere with desired detection. […]
To evaluate the stability of labeling, we imaged the labeled cells repeatedly over 1 hr and quantified the fluorescence intensity of Alexa488 or GFP at regular intervals. […]

Molecule | t1/2 [1] [h] | Koff(×10^−3 min^−1) [1] | other results
mSA-R: monomeric streptavidin mutant SEQ ID NO: 2, S25R (S13R in SEQ ID NO: 1 numbering) (protein, Modified streptavidin) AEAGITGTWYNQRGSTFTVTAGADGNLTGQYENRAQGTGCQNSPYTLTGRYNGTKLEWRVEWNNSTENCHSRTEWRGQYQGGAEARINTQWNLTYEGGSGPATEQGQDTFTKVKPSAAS | 4.62 ± 0.2 | 2.51 ± 0.11 ×10^−3 min^−1 | fold lowering of koff compared to the S25H mutant [1]: 3.3 fold; fold lowering of koff compared to the original mSA [1]: ~21 fold and 25 fold; t1/2 ([1]; listed as S25R): 4.62 h
mSA-ER: monomeric streptavidin mutant SEQ ID NO: 6, Q24E, S25R (protein, Modified streptavidin) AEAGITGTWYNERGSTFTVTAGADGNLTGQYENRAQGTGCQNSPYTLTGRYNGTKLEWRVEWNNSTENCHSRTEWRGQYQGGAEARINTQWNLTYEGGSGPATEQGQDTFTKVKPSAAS | 1.14 ± 0.102 | 10.2 ± 0.91 ×10^−3 min^−1 | 
mSA-DR: monomeric streptavidin mutant SEQ ID NO: 7, Q24D, S25R (protein, modified streptavidin) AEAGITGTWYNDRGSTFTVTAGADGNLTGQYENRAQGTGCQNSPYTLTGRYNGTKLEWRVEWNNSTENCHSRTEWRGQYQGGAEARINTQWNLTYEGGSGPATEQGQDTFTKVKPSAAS | 0.568 ± 0.02 | 20.3 ± 0.69 ×10^−3 min^−1 | 
mSA-DRF: monomeric streptavidin mutant SEQ ID NO: 9, Q24D, S25R, T48F (protein, Modified streptavidin) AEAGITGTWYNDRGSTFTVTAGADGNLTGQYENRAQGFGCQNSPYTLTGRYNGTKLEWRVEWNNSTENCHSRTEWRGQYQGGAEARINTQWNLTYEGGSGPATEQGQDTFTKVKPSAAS | 0.778 ± 0.0217 | 14.9 ± 0.41 ×10^−3 min^−1 | 
mSA-ERF: monomeric streptavidin mutant SEQ ID NO: 8, Q24E, S25R, T48F (protein, Modified streptavidin) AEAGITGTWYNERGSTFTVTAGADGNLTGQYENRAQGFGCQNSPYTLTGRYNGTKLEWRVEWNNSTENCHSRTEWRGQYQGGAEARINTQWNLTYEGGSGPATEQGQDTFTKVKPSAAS | 1.26 ± 0.03 | 9.15 ± 0.21 ×10^−3 min^−1 | 
mSA-H: monomeric streptavidin mutant SEQ ID NO: 5, S25H (protein, Modified streptavidin) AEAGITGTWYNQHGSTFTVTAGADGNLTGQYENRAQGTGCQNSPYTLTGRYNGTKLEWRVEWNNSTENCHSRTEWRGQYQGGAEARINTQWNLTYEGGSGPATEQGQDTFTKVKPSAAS | 1.41 ± 0.0517 | 8.19 ± 0.31 ×10^−3 min^−1 | 
mSA: engineered monomeric streptavidin, reference sequence SEQ ID NO: 1 (Lim et al. 2013) (protein, monomeric streptavidin) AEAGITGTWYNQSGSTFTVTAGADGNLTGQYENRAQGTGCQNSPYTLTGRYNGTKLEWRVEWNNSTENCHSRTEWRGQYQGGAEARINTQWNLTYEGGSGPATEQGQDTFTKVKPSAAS | 0.183 | 63 ×10^−3 min^−1 | biotin dissociation koff [2]: 0.00105 s⁻¹; dissociation t1/2 [2]: 0.183 h
mSA-DRWT: monomeric streptavidin mutant SEQ ID NO: 11, Q24D, S25R, T48W, E124T (protein, Modified streptavidin) AEAGITGTWYNDRGSTFTVTAGADGNLTGQYENRAQGWGCQNSPYTLTGRYNGTKLEWRVEWNNSTENCHSRTEWRGQYQGGAEARINTQWNLTYEGGSGPATTQGQDTFTKVKPSAAS | 0.717 ± 0.0233 | 16.1 ± 0.52 ×10^−3 min^−1 | 
mSA-RWT: monomeric streptavidin mutant SEQ ID NO: 4, S25R, T48W, E124T (protein, Modified streptavidin) AEAGITGTWYNQRGSTFTVTAGADGNLTGQYENRAQGWGCQNSPYTLTGRYNGTKLEWRVEWNNSTENCHSRTEWRGQYQGGAEARINTQWNLTYEGGSGPATTQGQDTFTKVKPSAAS | 5.48 ± 0.35 | 2.11 ± 0.13 ×10^−3 min^−1 | Alexa488/GFP fluorescence of labeled cells over time ([3]; after 1 hr, 900 μM biotin in the labeling solution): remained high; labeling of cells displaying biotinylated AP-CFP ([3]; fixed HEK293 cells, 1 μM for 30 minutes): Only CFP positive cells were labeled selectively; off rate / dissociation half-life compared with another mutant ([1]; result in words): longer than mSA-S25R
mSA-ERWT: monomeric streptavidin mutant SEQ ID NO: 10, Q24E, S25R, T48W, E124T (protein, Modified streptavidin) AEAGITGTWYNERGSTFTVTAGADGNLTGQYENRAQGWGCQNSPYTLTGRYNGTKLEWRVEWNNSTENCHSRTEWRGQYQGGAEARINTQWNLTYEGGSGPATTQGQDTFTKVKPSAAS | 1.19 ± 0.0283 | 9.73 ± 0.24 ×10^−3 min^−1 | 
